# US11248019B2, “Trityl-mono-GalNAc compounds and their use” (Hoffmann-La Roche Inc., priority 2016, dated 2022)
# Legend:
# Type in all cases: in vivo, C57BL6/J mice
# ALT in serum (Example 7) = details: 0.1 mg/kg single iv dose
# Procedure: (§1) Female C57BL6/J mice (5/group appr. 20 g at arrival) were injected intravenous (iv) with a single dose saline or 0.1 mg/kg of GalNAc conjugated LNA antisense oligonucleotide (Compound J, K, L, B or C of the invention or reference compound M). Blood samples of 50 μl were collected pre-dosing at day minus 6, and post dosing at day 3, 7, 10 and 14. The animals were sacrificed at day 7 or 14 and total serum was collected as well as liver and kidney.
# ALT (Alanine aminotransferase) was measured using ABX Pentra ALT CP reagent (A11A01627 Triolab, Brondby, Denmark. The results are shown in table 17.
# ApoB mRNA [1] = experiment: ApoB mRNA knockdown in liver and kidney by qPCR, single iv dose 0.1 mg/kg, day 7 or 14 (Example 7); details: 0.1 mg/kg single iv dose
# Procedure: (§2) ApoB mRNA knockdown was analyzed by qPCR. In brief, RNA was isolated from homogenized liver and kidney using MagnaPure RNA Isolation and purification system (catalog #03604721001 and #05467535001; Roche) according to the manufacturer's instructions. RT-QPCR was done using Taqman Fast Universal PCR Master Mix 2×(Applied Biosystems Cat #4364103) and Taqman gene expression assay (mApoB, Mn01545150_m1 and mGAPDH #4352339E) following the manufacturers protocol.
# as §1
# ApoB mRNA knock down was measured as described in example 4.
# [2] = Oligonucleotide content in liver and kidney by ELISA (Example 7); details: 0.1 mg/kg single iv dose
# Procedure: as §1
# The oligonucleotide content in the liver and kidney was measured using ELISA (see for example Straarup et al 2010 Nucleic Acid Res Vol 38 pp 7100-7111), results are shown in Table 16.
# ALT in serum (Example 6) = experiment: ALT in serum (Example 6)
# Procedure: (§3) Female C57BL6/J mice (5/group appr. 20 g at arrival) were injected intravenous (iv) with a single dose saline, 0.22 mg/kg, 0.45 mg/kg or 0.89 mg/kg, of GalNAc conjugated LNA antisense oligonucleotide (Compound H, I or J of the invention) or the naked reference compound F. Blood samples of 50 μl were collected pre-dosing at day minus 6. The animals were sacrificed at day 3. Total serum was collected as well as liver and kidney.
# ALT (Alanine aminotransferase) was measured using ABX Pentra ALT CP reagent (A11A01627 Triolab, Brondby, Denmark. The results are shown in Table 13.
# ApoB mRNA [3] = experiment: ApoB mRNA knockdown in liver and kidney by qPCR, single iv dose, sacrifice day 3 (Example 6)
# Procedure: as §2, §3
# [4] = system: total cholesterol in serum; experiment: Total cholesterol in serum (Example 6); details: day 3
# Procedure: as §3
# Total cholesterol in serum was measured using ABX Pentra Cholesterol CP (Triolab, Brondby, Denmark) according to the manufacturer's instructions.
# [5] = Oligonucleotide content in liver and kidney by ELISA (Example 6); details: for Oligonucleotide content in kidney tissue / Oligonucleotide content in liver tissue: day 3
# Procedure: as §3
# The oligonucleotide content in the liver and kidney was measured using ELISA (see for example Straarup et al 2010 Nucleic Acid Res Vol 38 pp 7100-7111), results are shown in Table 11A and 11B.
substance,measurement,setting,value
5′-GS^mCSaStStSgSgStSaStSTS^mCSA-3′ [Compound J],ALT levels (U/L) in serum as % of saline,ALT in serum (Example 7); Day 7,128.6 % of saline
same,ALT levels (U/L) in serum as % of saline,ALT in serum (Example 7); Day 14,126.1 % of saline
same,"ApoB mRNA/mGAPDH expression as % of saline, Avg kidney","ApoB mRNA [1]; Day 7, kidney",83.9 % of saline
same,"ApoB mRNA/mGAPDH expression as % of saline, Avg liver","ApoB mRNA [1]; Day 7, liver",56.0 % of saline
same,"ApoB mRNA/mGAPDH expression as % of saline, Avg kidney","ApoB mRNA [1]; Day 14, kidney",96.8 % of saline
same,"ApoB mRNA/mGAPDH expression as % of saline, Avg liver","ApoB mRNA [1]; Day 14, liver",107.6 % of saline
same,"Oligonucleotide content, Avg kidney","[2]; Day 7, kidney tissue",0.153 µg/g
same,"Oligonucleotide content, Avg liver","[2]; Day 7, liver tissue",0.276 µg/g
same,"Oligonucleotide content, Avg kidney","[2]; Day 14, kidney tissue",0.079 µg/g
same,"Oligonucleotide content, Avg liver","[2]; Day 14, liver tissue",0.163 µg/g
same,ALT levels (U/L) in serum at day 3 as % of saline,ALT in serum (Example 6); 0.22 mg/kg single iv dose,101 % of saline
same,ALT levels (U/L) in serum at day 3 as % of saline,ALT in serum (Example 6); 0.45 mg/kg single iv dose,201 % of saline
same,ALT levels (U/L) in serum at day 3 as % of saline,ALT in serum (Example 6); 0.89 mg/kg single iv dose,1558 % of saline
same,ALT levels,"ALT in serum (Example 6); in words, highest dose (0.89 mg/kg)",some animals showed increase ALT levels
same,ApoB mRNA expression as % of saline in kidney,ApoB mRNA [3]; 0.22 mg/kg single iv dose,117.0 % of saline
same,ApoB mRNA/mGAPDH expression as % of saline in liver,ApoB mRNA [3]; 0.22 mg/kg single iv dose,12.8 % of saline
same,ApoB mRNA expression as % of saline in kidney,ApoB mRNA [3]; 0.45 mg/kg single iv dose,90.7 % of saline
same,ApoB mRNA/mGAPDH expression as % of saline in liver,ApoB mRNA [3]; 0.45 mg/kg single iv dose,6.3 % of saline
same,ApoB mRNA expression as % of saline in kidney,ApoB mRNA [3]; 0.89 mg/kg single iv dose,64.1 % of saline
same,ApoB mRNA/mGAPDH expression as % of saline in liver,ApoB mRNA [3]; 0.89 mg/kg single iv dose,3.0 % of saline
same,ApoB knock down in the liver,"ApoB mRNA [3]; in words, single iv dose",improved ApoB knock down in the liver
same,serum cholesterol percent of saline,[4]; 0.22 mg/kg single iv dose,37.3% of saline
same,serum cholesterol percent of saline,[4]; 0.45 mg/kg single iv dose,21.5% of saline
same,serum cholesterol percent of saline,[4]; 0.89 mg/kg single iv dose,10.0% of saline
same,serum cholesterol reduction,"[4]; in words, single iv dose",serum cholesterol reduction
same,Oligonucleotide content in kidney tissue,[5]; 0.22 mg/kg single iv dose,0.169 µg/g
same,Oligonucleotide content in liver tissue,[5]; 0.22 mg/kg single iv dose,0.313 µg/g
same,Oligonucleotide content in kidney tissue,[5]; 0.45 mg/kg single iv dose,0.549 µg/g
same,Oligonucleotide content in liver tissue,[5]; 0.45 mg/kg single iv dose,0.710 µg/g
same,Oligonucleotide content in kidney tissue,[5]; 0.89 mg/kg single iv dose,1.040 µg/g
same,Oligonucleotide content in liver tissue,[5]; 0.89 mg/kg single iv dose,1.478 µg/g
same,liver to kidney ratio compared to unconjugated (naked) oligonucleotide (compound F),"[5]; in words, tables 9 to 11",improved liver to kidney ratio
